# Measurements reported in article PMC11026473.
# Molecular target: myc-Xbra (UniProt P24781)
# Assay: co-immunoprecipitation (IP: Flag, WB: Myc), band intensity quantified
# Details: Xenopus embryos injected with flag-smad1 constructs and myc-xbra; parent: est. 1.0; read off a plot
# UniProt P24781, sequence (P24781 whole entry): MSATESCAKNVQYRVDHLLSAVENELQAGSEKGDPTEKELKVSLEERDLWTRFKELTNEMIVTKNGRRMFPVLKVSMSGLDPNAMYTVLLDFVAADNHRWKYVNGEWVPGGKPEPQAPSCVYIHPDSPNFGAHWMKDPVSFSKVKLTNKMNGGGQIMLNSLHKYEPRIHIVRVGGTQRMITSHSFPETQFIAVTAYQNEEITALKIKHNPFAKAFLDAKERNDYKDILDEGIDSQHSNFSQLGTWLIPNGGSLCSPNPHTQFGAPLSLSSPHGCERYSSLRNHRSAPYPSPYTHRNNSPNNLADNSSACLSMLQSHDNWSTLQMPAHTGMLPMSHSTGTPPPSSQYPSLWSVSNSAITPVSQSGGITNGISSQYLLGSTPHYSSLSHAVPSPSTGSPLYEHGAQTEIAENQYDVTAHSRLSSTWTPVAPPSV
row,ratio to parent,Substance
1,0.65,flag-Smad1 (WT) (from UniProt Q15797) S187A; S196A; S206A; S214A; C-terminal SSXS to DDXD (4SA3SD)
2,4.1,flag-Smad1 (WT) (from UniProt Q15797) S187D; S196D; S206D; S214D; C-terminal SSXS to DDXD (4SD3SD)
